Assay [1] has as its target T1, cynomolgus CD47 (cynomolgus, UniProt A0A5F8AK49 19-323).
T1 chain: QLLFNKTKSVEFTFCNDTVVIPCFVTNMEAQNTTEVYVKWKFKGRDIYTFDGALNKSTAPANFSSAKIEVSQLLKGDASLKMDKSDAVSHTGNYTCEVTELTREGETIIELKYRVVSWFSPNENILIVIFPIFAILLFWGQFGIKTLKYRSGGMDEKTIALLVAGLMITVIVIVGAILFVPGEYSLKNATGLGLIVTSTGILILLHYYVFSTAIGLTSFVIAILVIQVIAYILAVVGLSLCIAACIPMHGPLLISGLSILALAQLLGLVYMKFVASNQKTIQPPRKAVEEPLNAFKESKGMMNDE
Nature of the assay: FACS binding, C6-cKT14 cells. (In flow cytometry, cells or beads pass a laser one at a time.)

The target in assay [2] is T2, human CD47 (human, UniProt Q08722 19-323). Nature of the assay: FACS binding, C6-hKT14 cells.
Assay [3] addresses cynomolgus MDR1 (Macaca fascicularis). Nature of the assay: FACS binding, 293T-cB1 cells.
For assay [4], the target named is T3, human MDR1 (multidrug resistance protein 1) (UniProt P08183 1-1280). Put plainly: FACS binding, 293T-hB1 cells.
Assay [5] has as its target T3, human MDR1 (multidrug resistance …). Put plainly: FACS binding, 293T cells expressing human MDR1.
Assay [6] concerns the target T2, human CD47. Nature of the assay: FACS binding, C6 cells expressing human CD47.

Sequence of cynomolgus MDR1 (Macaca fascicularis) (chain, as listed by the source): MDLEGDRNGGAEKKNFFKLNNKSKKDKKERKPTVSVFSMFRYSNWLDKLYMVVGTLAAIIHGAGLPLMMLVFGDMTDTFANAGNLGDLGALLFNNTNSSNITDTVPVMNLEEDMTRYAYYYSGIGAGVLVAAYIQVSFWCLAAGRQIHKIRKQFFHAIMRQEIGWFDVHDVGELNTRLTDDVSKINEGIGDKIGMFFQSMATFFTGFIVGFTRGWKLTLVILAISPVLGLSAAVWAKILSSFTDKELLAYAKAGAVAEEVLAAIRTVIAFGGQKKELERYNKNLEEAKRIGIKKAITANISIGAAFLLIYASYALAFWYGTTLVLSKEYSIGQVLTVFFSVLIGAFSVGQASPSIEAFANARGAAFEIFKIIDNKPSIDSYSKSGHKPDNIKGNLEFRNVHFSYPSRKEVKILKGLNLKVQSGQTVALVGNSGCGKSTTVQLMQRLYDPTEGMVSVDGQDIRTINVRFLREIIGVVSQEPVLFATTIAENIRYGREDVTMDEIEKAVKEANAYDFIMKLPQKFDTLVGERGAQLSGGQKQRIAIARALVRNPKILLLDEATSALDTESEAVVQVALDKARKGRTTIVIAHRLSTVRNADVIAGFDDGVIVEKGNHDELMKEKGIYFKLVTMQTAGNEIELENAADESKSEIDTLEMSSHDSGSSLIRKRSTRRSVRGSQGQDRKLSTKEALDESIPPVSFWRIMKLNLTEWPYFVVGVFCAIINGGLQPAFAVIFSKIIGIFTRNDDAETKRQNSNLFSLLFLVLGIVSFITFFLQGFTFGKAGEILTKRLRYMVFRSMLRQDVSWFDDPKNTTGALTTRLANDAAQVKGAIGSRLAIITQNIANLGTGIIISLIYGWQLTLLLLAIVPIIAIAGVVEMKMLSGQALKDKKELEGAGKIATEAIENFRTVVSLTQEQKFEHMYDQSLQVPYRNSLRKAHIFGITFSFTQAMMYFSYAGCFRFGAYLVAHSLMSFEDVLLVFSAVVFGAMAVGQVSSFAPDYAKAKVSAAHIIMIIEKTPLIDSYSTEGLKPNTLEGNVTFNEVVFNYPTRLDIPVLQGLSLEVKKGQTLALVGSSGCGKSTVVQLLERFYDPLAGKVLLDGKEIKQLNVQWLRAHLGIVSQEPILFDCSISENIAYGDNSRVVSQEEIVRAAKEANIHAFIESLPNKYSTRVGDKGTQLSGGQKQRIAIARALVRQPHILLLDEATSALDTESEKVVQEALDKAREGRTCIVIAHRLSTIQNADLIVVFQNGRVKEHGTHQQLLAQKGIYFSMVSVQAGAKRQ

B1: B1.28DD/KT14KK/28 (antibody)
chain 1: EVKLVESGGGLVKPGGSLKLSCAASGFTFGLYTMSWVRQTPERRLEWVATISSGGSNTYYPDSVKGRFTISRDNAKNNLFLQMNSLRSEDTALYYCARYYRYDAWFAYWGQGTLVTVSS
chain 2: QVQLVQSGAEVKKPGASVKVSCKASGYTFTNYNMHWVRQAPGQRLEWMGTIYPGNDDTSYNQKFKDRVTITADTSASTAYMELSSLRSEDTAVYYCARGGYRAMDYWGQGTLVTVSS
chain 3: DVLLTQTPLSLPVSLGDQASISCRSSQNIVHSTGNTYLDWYLQKPGQSPKLLIYKVSNRFSGVPDRFSGSGSGTDFTLKISRVEAEDLGVYFCFQGSHIPRTFGGGTKLEIK
Turning to B1, the EC50 – broadly, the concentration giving half of the maximal effect – in assay [1] came out at 83 nM; in assay [2], 40 nM.

B2: B1.28 (antibody, V domains shown)
VH: EVKLVESGGGLVKPGGSLKLSCAASGFTFGLYTMSWVRQTPERRLEWVATISSGGSNTYYPDSVKGRFTISRDNAKNNLFLQMNSLRSEDTALYYCARYYRYDAWFAYWGQGTLVTVSS
VL: DVLLTQTPLSLPVSLGDQASISCRSSQNIVHSTGNTYLDWYLQKPGQSPKLLIYKVSNRFSGVPDRFSGSGSGTDFTLKISRVEAEDLGVYFCFQGSHIPRTFGGGTKLEIK
On to B2, for which the Kd (usually the equilibrium constant for the complex coming apart) was 97 nM in assay [3] and 17 nM in assay [4]. The molecule also registered a half-maximal effective concentration (EC50) in assay [5] of 4.8 nM.

B3: KT14.B6H12hu scFv-B1.28.hu13 (bispecific antibody)
scFv: not shown
heavy: EVQLVESGGGLVKPGGSLRLSCAASGFTFGLYTMSWVRQAPGKGLEWVATISSGGSNTYYPDSVKGRFTISRDNAKNSLYLQMNSLRAEDTAVYYCARYYRYDAWFAYWGQGTLVTVSSASTKGPSVFPLAPSSKSTSGGTAALGCLVKDYFPEPVTVSWNSGALTSGVHTFPAVLQSSGLYSLSSVVTVPSSSLGTQTYICNVNHKPSNTKVDKRVEPKSCDKTHTCPPCPAPELLGGPSVFLFPPKPKDTLMISRTPEVTCVVVDVSHEDPEVKFNWYVDGVEVHNAKTKPREEQYNSTYRVVSVLTVLHQDWLNGKEYKCKVSNKALPAPIEKTISKAKGQPREPQVCTLPPSREEMTKNQVSLSCAVKGFYPSDIAVEWESNGQPENNYKTTPPVLDSDGSFFLVSKLTVDKSRWQQGNVFSCSVMHEALHNHYTQKSLSLSPGK
light: EVVLTQSPATLSLSPGERATLSCRSSQNIVHSTGNTYLDWYQQKPGQSPRLLIYKVSNRFSGVPARFSGSGSGTDFTLTISSLEPEDFAVYYCFQGSHIPRTFGGGTKLEIKRTVAAPSVFIFPPSDEQLKSGTASVVCLLNNFYPREAKVQWKVDNALQSGNSQESVTEQDSKDSTYSLSSTLTLSKADYEKHKVYACEVTHQGLSSPVTKSFNRGEC
The molecule B3 showed an EC50 in assay [6] of 1.5 nM.

(Values after patent US20230203156A1 (published 2023).)
